Results taken from the RNAGym collection of RNA variant scans (doi:10.1093/molbev/msab373).

B1: Azoarcus group I ribozyme (parent)
chain: GUGCCUUGCGCCGGGAAACCACGCAAGGGAUGGUGUCAAAUUCGGCGAAACCUAAGCGCCCGCCCGGGCGUAUGGCAACGCCGAGCCAAGCUUCGGCGCCUGCGCCGAUGAAGGUGUAGAGACUAGACGGCACCCACCUAAGGCAAACGCUAUGGUGAAGGCAUAGUCCAGGGAGUGGCGAAAGUCACACAAACCGG

Variants of: B1
Experiment: reverse-splicing fitness (ratio to wild type); higher = more active; in vitro selection; Mg2+ level not given
How it was run: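 An in vitro group I ribozyme library with randomized positions was T7-transcribed and gel-purified. In triplicate, 10 pmol RNA in EPPS pH 7.5 was reacted with 50 pmoles of a 30-nt RNA substrate for 1 h at 37 °C across several added MgCl2 levels (1–48 mM), then stopped with EDTA. Products were reverse transcribed from a substrate-complementary primer, PCR-amplified and sequenced (HiSeq 4000). Fitness is a variant's read proportion after selection over that before, normalised to wild type.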

Variant	reverse-splicing fitness
GUGCCUUGCGCCGGGAAACCACGCAAGGGAUGGUGUCAAAUUCGGCGAAACCUAAGCGCCCGCCCGGGCGUAUGGCAACGCAGAGCCAAGCUUCGGCGCCUGCGCCGAUGUAGGUGUAGGGACUAGACGGCACCCACCUAAGGCAAACGCUAUGGUGAAGGCAUAGUCGAGGGAGGGGCGAAAGUCACACAAACCGG	0.00439
GUGCCUUGCGCCGGGAAACCACGCAAGGGAUGGUGUCAAAUUCGGCGAAACCUAAGCGCCCGCCCGGGCGUAUGGCAACGCAGAGCCAAGCUUCGGCGCCUGCGCCGAUGUAGGUGUAGGGACUAGACGGCACCCACCUAAGGCAAACGCUAUGGUGAAGGCAUAGUCAAGGGAGAGGCGAAAGUCACACAAACCGG	0.0188
GUGCCUUGCGCCGGGAAACCACGCAAGGGAUGGUGUCAAAUUCGGCGAAACCUAAGCGCCCGCCCGGGCGUAUGGCAACGCAGAGCCAAGCUUCGGCGCCUGCGCCGAUGUAGGUGUAGGGACUAGACGGCACCCACCUAAGGCAAACGCUAUGGUGAAGGCAUAGUCAAGGGAGCGGCGAAAGUCACACAAACCGG	0.0218
GUGCCUUGCGCCGGGAAACCACGCAAGGGAUGGUGUCAAAUUCGGCGAAACCUAAGCGCCCGCCCGGGCGUAUGGCAACGCAGAGCCAAGCUUCGGCGCCUGCGCCGAUGUAGGUGUAGGGACUAGACGGCACCCACCUAAGGCAAACGCUAUGGUGAAGGCAUAGUCAAGGGAGGGGCGAAAGUCACACAAACCGG	0.00506
GUGCCUUGCGCCGGGAAACCACGCAAGGGAUGGUGUCAAAUUCGGCGAAACCUAAGCGCCCGCCCGGGCGUAUGGCAACGCAGAGCCAAGCUUCGGCGCCUGCGCCGAUGUAGGUGUAGGGACUAGACGGCACCCACCUAAGGCAAACGCUAUGGUGAAGGCAUAGUCCAGGGAGAGGCGAAAGUCACACAAACCGG	0.0127
GUGCCUUGCGCCGGGAAACCACGCAAGGGAUGGUGUCAAAUUCGGCGAAACCUAAGCGCCCGCCCGGGCGUAUGGCAACGCAGAGCCAAGCUUCGGCGCCUGCGCCGAUGUAGGUGUAGGGACUAGACGGCACCCACCUAAGGCAAACGCUAUGGUGAAGGCAUAGUCCAGGGAGGGGCGAAAGUCACACAAACCGG	0.00705
GUGCCUUGCGCCGGGAAACCACGCAAGGGAUGGUGUCAAAUUCGGCGAAACCUAAGCGCCCGCCCGGGCGUAUGGCAACGCAGAGCCAAGCUUCGGCGCCUGCGCCGAUGUAGGUGUAGGGACUAGACGGCACCCACCUAAGGCAAACGCUAUGGUGAAGGCAUAGUCCAGGGAGCGGCGAAAGUCACACAAACCGG	0.0189
GUGCCUUGCGCCGGGAAACCACGCAAGGGAUGGUGUCAAAUUCGGCGAAACCUAAGCGCCCGCCCGGGCGUAUGGCAACGCAGAGCCAAGCUUCGGCGCCUGCGCCGAUGUAGGUGUAGUGACUAGACGGCACCCACCUAAGGCCAACGAUAUGGUGAAGGCAUAGUCAAGGGAGCGGCGAAAGUCACACAAACCGG	0.00299
GUGCCUUGCGCCGGGAAACCACGCAAGGGAUGGUGUCAAAUUCGGCGAAACCUAAGCGCCCGCCCGGGCGUAUGGCAACGCAGAGCCAAGCUUCGGCGCCUGCGCCGAUGUAGGUGUAGUGACUAGACGGCACCCACCUAAGGCCAACGAUAUGGUGAAGGCAUAGUCAAGGGAGGGGCGAAAGUCACACAAACCGG	0.00263
GUGCCUUGCGCCGGGAAACCACGCAAGGGAUGGUGUCAAAUUCGGCGAAACCUAAGCGCCCGCCCGGGCGUAUGGCAACGCAGAGCCAAGCUUCGGCGCCUGCGCCGAUGUAGGUGUAGUGACUAGACGGCACCCACCUAAGGCCAACGAUAUGGUGAAGGCAUAGUCAAGGGAGAGGCGAAAGUCACACAAACCGG	0.00272
GUGCCUUGCGCCGGGAAACCACGCAAGGGAUGGUGUCAAAUUCGGCGAAACCUAAGCGCCCGCCCGGGCGUAUGGCAACGCAGAGCCAAGCUUCGGCGCCUGCGCCGAUGUAGGUGUAGUGACUAGACGGCACCCACCUAAGGCCAACGAUAUGGUGAAGGCAUAGUCGAGGGAGUGGCGAAAGUCACACAAACCGG	0.00256
GUGCCUUGCGCCGGGAAACCACGCAAGGGAUGGUGUCAAAUUCGGCGAAACCUAAGCGCCCGCCCGGGCGUAUGGCAACGCAGAGCCAAGCUUCGGCGCCUGCGCCGAUGUAGGUGUAGUGACUAGACGGCACCCACCUAAGGCCAACGAUAUGGUGAAGGCAUAGUCAAGGGAGUGGCGAAAGUCACACAAACCGG	0.00277
GUGCCUUGCGCCGGGAAACCACGCAAGGGAUGGUGUCAAAUUCGGCGAAACCUAAGCGCCCGCCCGGGCGUAUGGCAACGCAGAGCCAAGCUUCGGCGCCUGCGCCGAUGUAGGUGUAGUGACUAGACGGCACCCACCUAAGGCCAACGAUAUGGUGAAGGCAUAGUCUAGGGAGUGGCGAAAGUCACACAAACCGG	0.00267
GUGCCUUGCGCCGGGAAACCACGCAAGGGAUGGUGUCAAAUUCGGCGAAACCUAAGCGCCCGCCCGGGCGUAUGGCAACGCAGAGCCAAGCUUCGGCGCCUGCGCCGAUGUAGGUGUAGUGACUAGACGGCACCCACCUAAGGCCAACGAUAUGGUGAAGGCAUAGUCCAGGGAGUGGCGAAAGUCACACAAACCGG	0.00524
GUGCCUUGCGCCGGGAAACCACGCAAGGGAUGGUGUCAAAUUCGGCGAAACCUAAGCGCCCGCCCGGGCGUAUGGCAACGCAGAGCCAAGCUUCGGCGCCUGCGCCGAUGUAGGUGUAGUGACUAGACGGCACCCACCUAAGGCCAACGAUAUGGUGAAGGCAUAGUCCAGGGAGAGGCGAAAGUCACACAAACCGG	0.00368
